Laboratory results: patent publication US9358302

Molecular target: GBSIII-OVAp (GBSIII conjugated to OVAp19)
Assay: cell-based or functional assay

Work on “T-cell receptor of DO11.10 transgenic mice that recognizes OVA peptide 323-339 in the context of MHC class II (I-A^d) (TCR)” yielded a T cell proliferation, stimulation index (SI), 10 µg GBSIII-OVAp of 53.6 SI and a fold decrease in T cell proliferation against OVAp of the same amount of 60 fold.
